Results reported in PMC4862330.

Target: F-actin (polymerized rabbit skeletal muscle G-actin) (rabbit) (UniProt P68135)
Assay: co-sedimentation

percent decrease in F-actin binding compared with wild type: 60%
Substance: talin ABS2 6× mutant (K922E/Q923E/Q930E/K1500E/R1510E/K1522E) (from UniProt P26039 1-2541) (domain or fragment)
